The data set concerns the target T1, T4 DNA ligase (T4DL) (UniProt P00970 1-487).
T1 sequence: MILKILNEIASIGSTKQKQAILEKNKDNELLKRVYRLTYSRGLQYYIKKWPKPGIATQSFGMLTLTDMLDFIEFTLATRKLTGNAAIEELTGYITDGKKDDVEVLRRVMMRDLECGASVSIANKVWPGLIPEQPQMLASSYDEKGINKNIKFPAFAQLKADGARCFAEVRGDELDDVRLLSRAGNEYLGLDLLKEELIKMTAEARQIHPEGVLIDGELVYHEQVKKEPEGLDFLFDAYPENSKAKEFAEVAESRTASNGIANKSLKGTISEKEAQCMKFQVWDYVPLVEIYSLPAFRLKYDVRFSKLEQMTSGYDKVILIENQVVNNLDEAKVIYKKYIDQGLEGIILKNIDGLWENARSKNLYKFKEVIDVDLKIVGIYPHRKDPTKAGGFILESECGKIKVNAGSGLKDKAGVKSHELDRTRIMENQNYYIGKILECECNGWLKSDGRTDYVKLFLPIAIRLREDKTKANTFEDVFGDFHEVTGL
The data set can be described thus: fluorescence anisotropy.

B1: DAS1M (structured_DNA)
DNA: ATCTCGACTAGTCAGTCTCCCCAGCTAAAAAAAAAAAAAGTTGGGGAAAAAAAAAATCCGAATGTCTCGGAT
modifications: 5' phosphate
In turn, B1 came in with a dissociation constant (Kd) of 1270 ± 300 nM.

The record behind these values is PMC9896561.
